Positions count from the first letter of the chain named. In names and notes the source's numbering stands.
B1: BAP050-hum19 (antibody, human IgG4 S228P, kappa)
heavy: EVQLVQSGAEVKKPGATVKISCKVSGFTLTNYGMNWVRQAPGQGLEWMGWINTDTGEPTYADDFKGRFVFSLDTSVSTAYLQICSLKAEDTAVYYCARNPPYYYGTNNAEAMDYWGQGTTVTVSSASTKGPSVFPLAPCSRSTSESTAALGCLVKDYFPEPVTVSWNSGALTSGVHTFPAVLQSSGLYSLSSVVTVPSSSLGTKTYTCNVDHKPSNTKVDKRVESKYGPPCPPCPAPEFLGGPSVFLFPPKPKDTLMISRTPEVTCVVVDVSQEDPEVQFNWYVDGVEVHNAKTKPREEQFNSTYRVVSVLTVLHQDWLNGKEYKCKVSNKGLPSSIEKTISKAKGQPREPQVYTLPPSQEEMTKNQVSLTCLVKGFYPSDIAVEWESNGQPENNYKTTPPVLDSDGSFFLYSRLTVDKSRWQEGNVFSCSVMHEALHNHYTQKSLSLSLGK
light: EIVLTQSPDFQSVTPKEKVTITCSSSQDISNYLNWYQQKPGQAPRLLIYYTSTLHLGVPSRFSGSGSGTDFTFTISSLEAEDAATYYCQQYYNLPWTFGQGTKVEIKRTVAAPSVFIFPPSDEQLKSGTASVVCLLNNFYPREAKVQWKVDNALQSGNSQESVTEQDSKDSTYSLSSTLTLSKADYEKHKVYACEVTHQGLSSPVTKSFNRGEC
notes: humanized IgG4(S228P)/kappa, transient CHO supernatant
B2: BAP050-hum20 (antibody, human IgG4 S228P, kappa, V domains shown)
VH: QVQLVQSGAEVKKPGASVKVSCKASGFTLTNYGMNWVRQARGQRLEWIGWINTDTGEPTYADDFKGRFVFSLDTSVSTAYLQICSLKAEDTAVYYCARNPPYYYGTNNAEAMDYWGQGTTVTVSS
VL: DIVMTQTPLSLPVTPGEPASISCSSSQDISNYLNWYQQKPGQAPRLLIYYTSTLHLGIPDRFSGSGSGTDFTLTISRLEPEDFAVYYCQQYYNLPWTFGQGTKVEIKR
notes: as for B1
B3: BAP050-hum02-Ser (antibody, human IgG4 S228P, kappa, V domains shown)
VH: B2 VH with Q1E, S17T, V20I, A24V, R41P, R44G, I48M, C84S
VL: DIQMTQSPSSLSASVGDRVTITCSSSQDISNYLNWYQQKPGKAPKLLIYYTSTLHLGIPPRFSGSGYGTDFTLTINNIESEDAAYYFCQQYYNLPWTFGQGTKVEIKR
notes: C84S in VHFW3 of BAP050-hum02; IgG4(S228P)/kappa; also called clone No. 2S; huBAP050(Ser) clone
B4: BAP050-hum09-Ser (antibody, human IgG4 S228P, kappa, V domains shown)
VH: B2 VH with C84S
VL: B3 VL
notes: C84S in VHFW3 of BAP050-hum09; IgG4(S228P)/kappa; also called clone No. 9S; huBAP050(Ser) clone
B5: BAP050-hum13-Ser (antibody, human IgG4 S228P, kappa, V domains shown)
VH: B2 VH with R41P, R44G, I48M, C84S
VL: B3 VL
notes: C84S in VHFW3 of BAP050-hum13; IgG4(S228P)/kappa; also called clone No. 13S (printed 135); huBAP050(Ser) clone
B6: BAP050-hum02 (antibody, human IgG4 S228P, kappa, V domains shown)
VH: B2 VH with Q1E, S17T, V20I, A24V, R41P, R44G, I48M
VL: B3 VL
notes: humanized IgG4(S228P)/kappa, transient CHO supernatant; also called humanized clone No. 02
B7: BAP050-hum04 (antibody, human IgG4 S228P, kappa, V domains shown)
VH: B2 VH with Q1E, S17T, V20I, A24V, R41P, R44G, I48M
VL: DIQMTQSPSSLSASVGDRVTITCSSSQDISNYLNWYLQKPGQSPQLLIYYTSTLHLGIPDRFSGSGSGTDFTLTISRLEPEDFAVYYCQQYYNLPWTFGQGTKVEIKR
notes: as for B1
B8: BAP050-hum05 (antibody, human IgG4 S228P, kappa)
heavy: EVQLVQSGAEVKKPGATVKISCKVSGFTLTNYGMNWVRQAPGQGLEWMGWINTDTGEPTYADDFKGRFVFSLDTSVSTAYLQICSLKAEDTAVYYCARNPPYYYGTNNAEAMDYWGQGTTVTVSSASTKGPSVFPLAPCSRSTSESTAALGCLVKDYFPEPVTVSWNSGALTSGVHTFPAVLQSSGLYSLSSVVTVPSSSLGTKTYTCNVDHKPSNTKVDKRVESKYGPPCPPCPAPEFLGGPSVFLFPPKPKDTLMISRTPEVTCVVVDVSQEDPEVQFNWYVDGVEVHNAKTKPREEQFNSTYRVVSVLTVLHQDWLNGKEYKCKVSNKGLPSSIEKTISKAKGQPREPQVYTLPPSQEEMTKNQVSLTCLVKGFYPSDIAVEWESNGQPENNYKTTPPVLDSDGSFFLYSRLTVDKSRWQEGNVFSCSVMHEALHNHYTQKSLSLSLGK
light: EIVLTQSPATLSLSPGERATLSCSSSQDISNYLNWYQQKPGKAPKLLIYYTSTLHLGVPSRFSGSGSGTDFTFTISSLEAEDAATYYCQQYYNLPWTFGQGTKVEIKRTVAAPSVFIFPPSDEQLKSGTASVVCLLNNFYPREAKVQWKVDNALQSGNSQESVTEQDSKDSTYSLSSTLTLSKADYEKHKVYACEVTHQGLSSPVTKSFNRGEC
notes: humanized IgG4(S228P)/kappa, transient CHO supernatant; also called humanized clone No. 05
B9: BAP050-hum07 (antibody, human IgG4 S228P, kappa, V domains shown)
VH: B2 VH with Q1E, S17T, V20I, A24V, R41P, R44G, I48M
VL: B7 VL with I58V, D60S, D70E, R77S, E79Q, E81D, V85T
notes: as for B1
B10: BAP050-hum03 (antibody, human IgG4 S228P, kappa)
heavy: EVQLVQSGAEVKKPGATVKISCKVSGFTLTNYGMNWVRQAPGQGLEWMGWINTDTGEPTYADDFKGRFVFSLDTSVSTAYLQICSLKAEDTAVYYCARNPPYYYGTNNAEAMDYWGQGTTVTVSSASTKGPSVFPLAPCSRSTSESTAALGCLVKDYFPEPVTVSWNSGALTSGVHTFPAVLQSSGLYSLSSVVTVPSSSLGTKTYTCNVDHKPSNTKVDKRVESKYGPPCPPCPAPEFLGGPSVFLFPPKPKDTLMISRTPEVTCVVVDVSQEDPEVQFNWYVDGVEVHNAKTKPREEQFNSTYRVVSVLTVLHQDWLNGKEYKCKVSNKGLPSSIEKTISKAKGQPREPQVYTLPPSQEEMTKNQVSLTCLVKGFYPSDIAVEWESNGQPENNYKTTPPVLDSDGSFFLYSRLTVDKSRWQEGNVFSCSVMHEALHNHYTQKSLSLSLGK
light: B8 light with S12P, L13V, S14T, P15L, E17Q, R18P, T20S, L21I, K42Q, K45R
notes: as for B1
B11: BAP050-hum06 (antibody, human IgG4 S228P, kappa, V domains shown)
VH: B2 VH with Q1E, S17T, V20I, A24V, R41P, R44G, I48M
VL: B2 VL with I58V, D60S, D70E, R77S, E79Q, E81D, V85T
notes: as for B1
B12: BAP050-hum08 (antibody, human IgG4 S228P, kappa)
heavy: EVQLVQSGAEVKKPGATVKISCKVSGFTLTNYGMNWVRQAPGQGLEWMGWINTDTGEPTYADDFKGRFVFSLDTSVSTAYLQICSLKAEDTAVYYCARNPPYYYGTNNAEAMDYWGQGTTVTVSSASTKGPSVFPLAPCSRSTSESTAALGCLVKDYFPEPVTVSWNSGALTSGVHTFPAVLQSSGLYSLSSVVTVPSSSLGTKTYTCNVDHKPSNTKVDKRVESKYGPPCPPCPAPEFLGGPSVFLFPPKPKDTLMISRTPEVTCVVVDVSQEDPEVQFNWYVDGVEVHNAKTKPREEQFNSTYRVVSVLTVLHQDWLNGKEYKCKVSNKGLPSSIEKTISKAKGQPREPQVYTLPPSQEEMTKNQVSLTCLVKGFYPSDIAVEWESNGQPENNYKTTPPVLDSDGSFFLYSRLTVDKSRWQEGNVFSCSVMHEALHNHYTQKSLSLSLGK
light: B1 light with F73L, E79Q, A80P, A83F
notes: as for B1
B13: BAP050-hum09 (antibody, human IgG4 S228P, kappa, V domains shown)
VH: B2 VH
VL: B3 VL
notes: humanized IgG4(S228P)/kappa, transient CHO supernatant; also called humanized clone No. 09
B14: BAP050-hum10 (antibody, human IgG4 S228P, kappa, V domains shown)
VH: B2 VH
VL: EIVLTQSPATLPVTLGQPASISCSSSQDISNYLNWYQQKPGQAPRLLIYYTSTLHLGVPSRFSGSGSGTDFTFTISSLEAEDAATYYCQQYYNLPWTFGQGTKVEIKR
notes: as for B1
B15: BAP050-hum11 (antibody, human IgG4 S228P, kappa, V domains shown)
VH: B2 VH
VL: B7 VL with I58V, D60S, D70E, R77S, E79Q, E81D, V85T
notes: humanized IgG4(S228P)/kappa, transient CHO supernatant; also called humanized clone No. 11
B16: BAP050-hum12 (antibody, human IgG4 S228P, kappa, V domains shown)
VH: B2 VH
VL: EIVLTQSPDFQSVTPKEKVTITCSSSQDISNYLNWYQQKPGQAPRLLIYYTSTLHLGVPSRFSGSGSGTDFTLTISSLQPEDFATYYCQQYYNLPWTFGQGTKVEIKR
notes: humanized IgG4(S228P)/kappa, transient CHO supernatant; also called humanized clone No. 12
B17: BAP050-hum13 (antibody, human IgG4 S228P, kappa, V domains shown)
VH: B2 VH with R41P, R44G, I48M
VL: B3 VL
notes: humanized IgG4(S228P)/kappa, transient CHO supernatant; also called humanized clone No. 13
B18: BAP050-hum14 (antibody, human IgG4 S228P, kappa, V domains shown)
VH: EVQLVQSGAEVKKPGATVKISCKVSGFTLTNYGMNWIRQSPSRGLEWLGWINTDTGEPTYADDFKGRFVFSLDTSVSTAYLQICSLKAEDTAVYYCARNPPYYYGTNNAEAMDYWGQGTTVTVSS
VL: B14 VL
notes: as for B1
B19: BAP050-hum15 (antibody, human IgG4 S228P, kappa, V domains shown)
VH: B18 VH
VL: B16 VL
notes: as for B1
B20: BAP050-hum16 (antibody, human IgG4 S228P, kappa, V domains shown)
VH: EVQLVQSGAEVKKPGESLRISCKGSGFTLTNYGMNWVRQATGQGLEWMGWINTDTGEPTYADDFKGRVTISADKSISTAYLQWSSLKASDTAMYYCARNPPYYYGTNNAEAMDYWGQGTTVTVSS
VL: B16 VL
notes: as for B1
B21: BAP050-hum17 (antibody, human IgG4 S228P, kappa, V domains shown)
VH: B2 VH with A9S, V11L, R41P, R44G, I48M, C84S, S85T, V93T, Y95F
VL: DIQMTQSPSSLSASVGDRVTITCSSSQDISNYLNWYQQKPGKAPKLLIYYTSTLHLGVPSRFSGSGSGTDFTFTISSLQPEDIATYYCQQYYNLPWTFGQGTKVEIKR
notes: as for B1

Experiments:
[1] = biological target: T1, human LAG-3 expressed on cells (human, UniProt P18627 23-525); test: rank of the clone among the humanized clones by the FACS binding data on LAG-3-expressing cells
T1 construct: whole, on cells; Treated as one protein; the host cell is named under assay; also called LAG-3-expressing CHO cells; LAG-3-transfected CHO cells
T1 sequence (looked up): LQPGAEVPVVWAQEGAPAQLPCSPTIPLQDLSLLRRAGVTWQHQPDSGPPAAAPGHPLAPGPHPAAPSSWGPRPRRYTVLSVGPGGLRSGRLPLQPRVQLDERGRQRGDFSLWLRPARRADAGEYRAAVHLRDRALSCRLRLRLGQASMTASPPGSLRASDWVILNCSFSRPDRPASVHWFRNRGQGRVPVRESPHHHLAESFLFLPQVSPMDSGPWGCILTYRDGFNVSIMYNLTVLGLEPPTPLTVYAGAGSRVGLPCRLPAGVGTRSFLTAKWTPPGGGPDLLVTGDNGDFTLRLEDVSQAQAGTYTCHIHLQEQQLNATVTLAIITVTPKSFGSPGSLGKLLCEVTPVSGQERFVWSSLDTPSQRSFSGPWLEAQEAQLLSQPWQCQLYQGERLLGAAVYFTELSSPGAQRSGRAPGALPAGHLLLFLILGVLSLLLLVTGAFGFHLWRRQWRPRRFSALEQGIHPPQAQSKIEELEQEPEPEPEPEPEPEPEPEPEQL

[2] = biological target: T1, human LAG-3 expressed on cells; test: rank of the clone by the competition binding data (test mAb against FITC-labeled murine BAP050 on LAG-3-expressing CHO cells), curve position relative to the chimeric mAb in two experiments
Method: Incubations with the mAb mixtures having different concentration ratios of test mAb to labeled mAb was at 4° C. for 30 min. […] The experiment was performed twice.
Such a ranking system was used in FIG. 6.

[3] = biological target: T1, human LAG-3 expressed on cells; test: FACS competition: serial dilutions of the test mAb against a constant concentration of FITC-labeled murine BAP050 on LAG-3-expressing CHO cells; MFI of bound labelled mAb

| Ranking, Binding data [1] | Ranking, Compet. data [2] | binding result [3] | Binder |
| --- | --- | --- | --- |
| 9 | > 3 | – | B1 |
| 9 | 3 | – | B2 |
| – | – | binds | B3 |
| – | – | binds | B4 |
| – | – | binds | B5 |
| 5 | 1 | – | B6 |
| 8 | 2 | – | B7 |
| 6 | > 3 | – | B8 |
| 8 | > 3 | – | B9 |
| 7 | 1 | – | B10 |
| 9 | 1 | – | B11 |
| 4 | > 3 | – | B12 |
| 8 | 2 | – | B13 |
| 9 | 2 | – | B14 |
| 2 | 2 | – | B15 |
| 3 | 2 | – | B16 |
| 9 | 3 | – | B17 |
| 9 | > 3 | – | B18 |
| 20 | 20 | – | B19 |
| 20 | 20 | – | B20 |
| 9 | > 3 | – | B21 |
